The text below walks through data of EP1736545A2.

Assay [1] concerns the target zcytor11 and CRF2-4 receptors co-expressed on transfected BaF3 or BHK cells (human) (UniProt Q08334). The assay can be described thus: cell-based or functional assay.
For a further assay, the target named is IL-TIF protein (human) (UniProt Q9GZX6). The assay can be described thus: cell-based or functional assay.
Sequence of IL-TIF protein (human) (Q9GZX6 34-179 limits assumed, form in doubt): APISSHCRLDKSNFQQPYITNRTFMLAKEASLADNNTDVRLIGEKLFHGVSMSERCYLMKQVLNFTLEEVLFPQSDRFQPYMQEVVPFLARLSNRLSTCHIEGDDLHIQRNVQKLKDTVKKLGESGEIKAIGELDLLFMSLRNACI

Sequence of zcytor11 and CRF2-4 receptors co-expressed on transfected BaF3 or BHK cells (human) (chain, as listed by the source limits assumed, form in doubt, chain 1 of 2): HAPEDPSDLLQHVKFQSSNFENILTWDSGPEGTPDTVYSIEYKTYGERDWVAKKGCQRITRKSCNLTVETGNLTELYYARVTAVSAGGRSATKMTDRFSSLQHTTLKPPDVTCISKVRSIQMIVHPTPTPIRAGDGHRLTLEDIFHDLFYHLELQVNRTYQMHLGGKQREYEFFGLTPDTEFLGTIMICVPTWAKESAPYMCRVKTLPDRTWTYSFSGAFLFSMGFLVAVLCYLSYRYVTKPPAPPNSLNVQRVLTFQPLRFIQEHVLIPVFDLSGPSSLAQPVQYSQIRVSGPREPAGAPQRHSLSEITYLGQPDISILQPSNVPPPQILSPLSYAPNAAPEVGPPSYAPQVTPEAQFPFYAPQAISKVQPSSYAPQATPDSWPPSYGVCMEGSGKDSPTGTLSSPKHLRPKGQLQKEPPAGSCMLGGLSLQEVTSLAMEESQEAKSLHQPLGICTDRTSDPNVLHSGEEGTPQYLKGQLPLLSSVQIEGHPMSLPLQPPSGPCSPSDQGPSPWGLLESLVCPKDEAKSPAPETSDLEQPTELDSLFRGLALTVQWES
Sequence of zcytor11 and CRF2-4 receptors co-expressed on transfected BaF3 or BHK cells (human) (Q08334 20-325 limits assumed, form in doubt, chain 2 of 2): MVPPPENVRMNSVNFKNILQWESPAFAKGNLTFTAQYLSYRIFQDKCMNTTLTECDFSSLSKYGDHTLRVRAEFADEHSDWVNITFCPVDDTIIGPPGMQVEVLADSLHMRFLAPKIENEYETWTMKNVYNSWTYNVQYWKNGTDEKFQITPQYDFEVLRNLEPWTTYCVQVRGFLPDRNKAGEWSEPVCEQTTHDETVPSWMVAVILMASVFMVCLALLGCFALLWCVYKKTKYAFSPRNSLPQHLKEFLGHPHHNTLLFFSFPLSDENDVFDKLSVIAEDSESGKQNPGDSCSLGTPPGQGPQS

Substance “IL-TIF protein (from UniProt Q9GZX6 34-179) (ligand)” had a proliferation of BaF3/CRF2-4/zcytor11 cells (Alamar Blue), IL-TIF at 100 pg/ml (fold over background) in assay [1] of 30.
In the assay with IL-TIF protein (human), “CRF2-4/zcytor11-Fc soluble receptor heterodimer (Fc fusion)” returned an inhibition of IL-TIF-induced proliferation of BaF3/CRF2-4/zcytor11 cells (Alamar Blue): concentration at which inhibition was barely detectable of 1.6 ng/mL, an inhibition of IL-TIF-induced proliferation of BaF3/CRF2-4/zcytor11 cells (Alamar Blue): concentrations giving complete inhibition of 25 to 200 ng/mL and an inhibition of IL-TIF-induced proliferation of BaF3/CRF2-4/zcytor11 cells (Alamar Blue): concentrations giving partial inhibition of 3.1 to 12.5 ng/mL.
